According to PMC4858697, “Crystal structure of TRAF1 TRAF domain and its implications in the TRAF1-mediated intracellular signaling pathway” (Scientific Reports, 2016):

B1: human TRAF1 TRAF domain (residues 220-416), containing the TRAF-N coiled-coil domain and the TRAF-C domain (domain or fragment, UniProt Q13077 220-416, looked up)
chain: HQSQLDRERILSLEQRVVELQQTLAQKDQALGKLEQSLRLMEEASFDGTFLWKITNVTRRCHESACGRTVSLFSPAFYTAKYGYKLCLRLYLNGDGTGKRTHLSLFIVIMRGEYDALLPWPFRNKVTFMLLDQNNREHAIDAFRPDLSSASFQRPQSETNVASGCPLFFPLSKLQSPKHAYVKDDTMFLKCIVETST
notes: TNF-receptor associated factor 1 (TRAF1), human, TRAF domain, amino acids 220-416, cloned into pET24a; Trimer in the crystal and in solution (SEC, MALS); also called wildtype TRAF1; not shown: His-tag, C-terminal, kept

Assays:
[1] = molecular target: TANK peptide PEP (Homo sapiens) (UniProt Q92844); details: cited from earlier work
TANK peptide PEP (Homo sapiens), sequence (Q92844 178-198): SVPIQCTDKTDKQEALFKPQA

[2] = molecular target: the molecule itself; test: SEC; Superdex 200 10/30 gel filtration in 20 mM sodium citrate pH 5.0, 1 M NaCl
[3] = molecular target: B1; test: ITC; NanoITC; 1 mM TANK peptide injected into ~20 uM wildtype or mutant TRAF1 in the cell; PBS; 15 °C; 25 injections; single site model; details: both partners purified

In the case of TRAF3 (from UniProt Q13114), the Kd [1] is given as 23.9 µM.

In the case of B1, the “stoichiometry N” value [2] is reported as 3.

B2: TANK peptide (SVPIQCTDKT) (peptide)
peptide: SVPIQCTDKT
notes: also called I-TRAF; source: synthetic peptide (Peptron, Dae-jeon, South Korea)
For B2, the Kd [3] was 13.6 µM.
